Reference: article PMC6769508
Changes are numbered by the printed parent chain. Blank lines part the entries; values can stand above or below the binder they belong to.

Assays:
[1] = target: SyKaiBDD, SyKaiB with Arg22 and Lys25 substituted with aspartate residues (Synechococcus elongatus PCC 7942) (UniProt Q79PF5)
[2] = target: SyKaiB, wild-type KaiB of Synechococcus elongatus PCC 7942 (Synechococcus elongatus PCC 7942) (UniProt Q79PF5)

period of the in vitro oscillation of the phosphorylated KaiC level (SyKaiA 1.5 µM, SyKaiC 3.4 µM, SyKaiBDD 4.2 µM, 30 °C) [1]: 30.4 h
B1: SyKaiBDD, SyKaiB with Arg22 and Lys25 substituted with aspartate residues (natural protein)
chain: MSPRKTYILKLYVAGNTPNSVDALDTLKNILEVEFQGVYALKVIDVLKNPQLAEEDKILATPTLAKVLPLPVRRIIGDLSDREKVLIGLDLLYGELQDSDDF

period of the in vitro oscillation of the phosphorylated KaiC level (SyKaiA 1.5 µM, SyKaiC 3.4 µM, SyKaiBWT 4.2 µM, 30 °C) [2]: 23.2 h
B2: SyKaiB, wild-type KaiB of Synechococcus elongatus PCC 7942 (natural protein)
chain: B1 chain with D22R, D25K
